Molecular target: T1, SAF-p2a
T1 construct: also called self-assembling peptide; straight
T1 peptide: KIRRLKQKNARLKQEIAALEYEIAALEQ
Experiment: co-assembly into fibres, seen by TEM (each peptide at 100 µM, 22° C. overnight)
Description: All samples of fibres were prepared with SAF-p1 and SAF-p2a (each at 100 μM concentration) with the designated amounts of FiSh peptides, and incubated at 22° C. overnight following the techniques described in Pandya et al., 2000 (supra).

B1: SAF-p1 (peptide)
peptide: KIAALKQKIASLKQEIDALEYENDALEQ
notes: Synthetic de novo leucine-zipper peptide made by Fmoc solid-phase synthesis; also called self-assembling peptide; straight
  binding result: binds

From patent US7507790 (UNIVERSITY OF SUSSEX, dated 2009)
